The values below come from patent US20090298769A1.

The target in experiment [1] is VEGFR-2 of mouse lung endothelial cells (mouse) (UniProt P35918). Put plainly: cell-based or functional assay.
Experiment [2] concerns the target αvβ3 integrin on human endothelial cells (HUVEC; vessels of human prostate tissue) (human) (UniProt P06756). Put plainly: flow cytometry, WOW-1 Fab on HUVEC.
Experiment [3] has the same target. Kind of experiment: flow cytometry (FACS), WOW-1 Fab on HUVEC. A general note: A flow cytometer gives signals particle by particle.
The target of experiment [4] is αvβ3 integrin, wild type, on mouse lung endothelial cells (mouse) (UniProt P43406). Put plainly: flow cytometry, WOW-1 Fab on WT mouse lung EC.
Sequence of αvβ3 integrin, wild type, on mouse lung endothelial cells (mouse) (P43406 31-1044, chain 1 of 2): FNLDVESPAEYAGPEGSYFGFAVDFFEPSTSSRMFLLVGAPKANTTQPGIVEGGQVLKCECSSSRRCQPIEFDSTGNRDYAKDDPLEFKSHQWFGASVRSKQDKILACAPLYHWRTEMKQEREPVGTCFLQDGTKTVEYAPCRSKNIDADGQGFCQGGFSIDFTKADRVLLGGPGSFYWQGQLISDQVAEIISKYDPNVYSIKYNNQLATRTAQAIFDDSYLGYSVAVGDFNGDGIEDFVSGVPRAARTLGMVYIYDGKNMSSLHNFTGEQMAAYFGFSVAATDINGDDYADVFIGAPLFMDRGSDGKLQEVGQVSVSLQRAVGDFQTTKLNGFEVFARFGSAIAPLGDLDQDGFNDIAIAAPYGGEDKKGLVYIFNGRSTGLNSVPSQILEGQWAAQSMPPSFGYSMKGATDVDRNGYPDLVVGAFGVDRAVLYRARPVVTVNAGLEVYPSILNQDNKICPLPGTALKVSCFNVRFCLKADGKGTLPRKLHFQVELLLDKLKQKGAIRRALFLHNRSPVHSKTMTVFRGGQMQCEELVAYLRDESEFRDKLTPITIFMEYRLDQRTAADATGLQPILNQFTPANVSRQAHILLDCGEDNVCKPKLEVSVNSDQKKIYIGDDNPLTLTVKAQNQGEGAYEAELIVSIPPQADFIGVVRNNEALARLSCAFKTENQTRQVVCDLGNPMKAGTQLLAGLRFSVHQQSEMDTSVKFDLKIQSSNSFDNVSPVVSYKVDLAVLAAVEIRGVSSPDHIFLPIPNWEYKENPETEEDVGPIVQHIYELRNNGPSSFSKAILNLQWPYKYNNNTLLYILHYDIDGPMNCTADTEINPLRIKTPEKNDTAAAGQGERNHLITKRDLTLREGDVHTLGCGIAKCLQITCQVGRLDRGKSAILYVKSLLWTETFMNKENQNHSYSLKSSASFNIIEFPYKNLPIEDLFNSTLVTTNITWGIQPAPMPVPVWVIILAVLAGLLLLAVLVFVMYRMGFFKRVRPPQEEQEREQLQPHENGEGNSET
Sequence of αvβ3 integrin, wild type, on mouse lung endothelial cells (mouse) (O54890 26-787, chain 2 of 2, further chain): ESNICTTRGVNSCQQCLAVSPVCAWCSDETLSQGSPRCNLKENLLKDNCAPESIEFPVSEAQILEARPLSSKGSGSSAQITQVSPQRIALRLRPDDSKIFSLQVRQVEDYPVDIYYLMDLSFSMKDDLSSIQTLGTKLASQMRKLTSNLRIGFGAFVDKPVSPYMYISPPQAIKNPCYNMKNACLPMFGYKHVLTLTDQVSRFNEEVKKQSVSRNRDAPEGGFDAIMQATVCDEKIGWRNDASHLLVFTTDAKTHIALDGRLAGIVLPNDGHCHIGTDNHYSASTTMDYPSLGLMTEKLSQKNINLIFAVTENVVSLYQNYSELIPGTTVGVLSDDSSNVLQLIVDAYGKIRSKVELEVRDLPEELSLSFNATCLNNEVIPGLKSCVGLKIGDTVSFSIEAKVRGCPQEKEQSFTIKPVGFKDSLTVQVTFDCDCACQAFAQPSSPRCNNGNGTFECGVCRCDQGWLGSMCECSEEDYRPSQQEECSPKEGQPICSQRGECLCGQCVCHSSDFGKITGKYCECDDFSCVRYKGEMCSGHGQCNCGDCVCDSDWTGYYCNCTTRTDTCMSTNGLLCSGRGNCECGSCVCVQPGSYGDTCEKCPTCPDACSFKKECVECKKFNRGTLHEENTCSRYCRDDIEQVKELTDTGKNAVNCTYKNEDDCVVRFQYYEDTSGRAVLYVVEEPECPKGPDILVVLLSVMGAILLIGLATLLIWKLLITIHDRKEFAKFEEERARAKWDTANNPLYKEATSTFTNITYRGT
Experiment [5] addresses αvβ3 integrin on human endothelial cells (HUVEC; vessels of human prostate tissue) (human) (UniProt P06756). Kind of experiment: immunohistochemistry of human prostate tissue.
In experiment [6] the target is DiYF β3 integrin (αvβ3 with β3 Tyr747Phe and Tyr759Phe) on lung endothelial cells of knock-in mice (mouse) (UniProt P43406). Put plainly: flow cytometry, WOW-1 Fab on DiYF mouse lung EC.
Experiment [7] concerns the target αvβ3 integrin on human endothelial cells (HUVEC; vessels of human prostate tissue) (human) (UniProt P06756). Kind of experiment: flow cytometry, WOW-1 Fab on HUVEC transfected with dominant negative c-Src.
The target in experiment [8] is DiYF β3 integrin (αvβ3 with β3 Tyr747Phe and Tyr759Phe) on lung endothelial cells of knock-in mice (mouse) (UniProt P43406). Kind of experiment: cell-based or functional assay.
In experiment [9] the target is αvβ3 integrin, wild type, on mouse lung endothelial cells (mouse) (UniProt P43406). Put plainly: flow cytometry, FITC-fibrinogen on WT mouse lung EC.
The target in experiment [10] is DiYF β3 integrin (αvβ3 with β3 Tyr747Phe and Tyr759Phe) on lung endothelial cells of knock-in mice (mouse) (UniProt P43406). Put plainly: flow cytometry, FITC-fibrinogen on DiYF mouse lung EC.

Sequence of αvβ3 integrin on human endothelial cells (HUVEC; vessels of human prostate tissue) (human) (P06756 31-1048, chain 1 of 2): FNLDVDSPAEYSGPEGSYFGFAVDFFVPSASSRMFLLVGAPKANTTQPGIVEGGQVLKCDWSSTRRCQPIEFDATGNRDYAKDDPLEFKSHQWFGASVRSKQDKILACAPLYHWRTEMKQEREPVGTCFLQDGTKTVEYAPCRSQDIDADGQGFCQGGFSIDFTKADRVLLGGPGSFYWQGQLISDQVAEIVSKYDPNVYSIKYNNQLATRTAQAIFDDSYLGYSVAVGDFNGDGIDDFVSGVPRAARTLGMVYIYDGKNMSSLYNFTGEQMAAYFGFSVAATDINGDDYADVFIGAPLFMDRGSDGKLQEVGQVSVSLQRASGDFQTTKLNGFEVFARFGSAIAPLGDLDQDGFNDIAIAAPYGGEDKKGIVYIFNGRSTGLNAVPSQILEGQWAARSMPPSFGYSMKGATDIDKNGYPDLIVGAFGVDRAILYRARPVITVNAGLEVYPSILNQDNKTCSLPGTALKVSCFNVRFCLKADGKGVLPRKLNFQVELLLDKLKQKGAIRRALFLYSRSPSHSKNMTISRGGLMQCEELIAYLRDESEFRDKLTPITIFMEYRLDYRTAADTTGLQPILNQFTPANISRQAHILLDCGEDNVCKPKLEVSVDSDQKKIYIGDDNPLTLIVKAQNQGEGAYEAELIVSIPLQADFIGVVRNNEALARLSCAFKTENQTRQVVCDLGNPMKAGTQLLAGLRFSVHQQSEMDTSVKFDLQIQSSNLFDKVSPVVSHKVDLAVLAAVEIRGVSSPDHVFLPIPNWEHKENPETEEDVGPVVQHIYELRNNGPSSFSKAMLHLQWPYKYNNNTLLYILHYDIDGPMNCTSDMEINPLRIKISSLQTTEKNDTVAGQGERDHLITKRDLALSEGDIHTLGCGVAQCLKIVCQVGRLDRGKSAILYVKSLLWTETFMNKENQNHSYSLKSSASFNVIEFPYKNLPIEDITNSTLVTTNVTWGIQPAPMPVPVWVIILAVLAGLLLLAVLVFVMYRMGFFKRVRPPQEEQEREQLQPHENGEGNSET
Sequence of αvβ3 integrin on human endothelial cells (HUVEC; vessels of human prostate tissue) (human) (P05106 27-788, chain 2 of 2, further chain): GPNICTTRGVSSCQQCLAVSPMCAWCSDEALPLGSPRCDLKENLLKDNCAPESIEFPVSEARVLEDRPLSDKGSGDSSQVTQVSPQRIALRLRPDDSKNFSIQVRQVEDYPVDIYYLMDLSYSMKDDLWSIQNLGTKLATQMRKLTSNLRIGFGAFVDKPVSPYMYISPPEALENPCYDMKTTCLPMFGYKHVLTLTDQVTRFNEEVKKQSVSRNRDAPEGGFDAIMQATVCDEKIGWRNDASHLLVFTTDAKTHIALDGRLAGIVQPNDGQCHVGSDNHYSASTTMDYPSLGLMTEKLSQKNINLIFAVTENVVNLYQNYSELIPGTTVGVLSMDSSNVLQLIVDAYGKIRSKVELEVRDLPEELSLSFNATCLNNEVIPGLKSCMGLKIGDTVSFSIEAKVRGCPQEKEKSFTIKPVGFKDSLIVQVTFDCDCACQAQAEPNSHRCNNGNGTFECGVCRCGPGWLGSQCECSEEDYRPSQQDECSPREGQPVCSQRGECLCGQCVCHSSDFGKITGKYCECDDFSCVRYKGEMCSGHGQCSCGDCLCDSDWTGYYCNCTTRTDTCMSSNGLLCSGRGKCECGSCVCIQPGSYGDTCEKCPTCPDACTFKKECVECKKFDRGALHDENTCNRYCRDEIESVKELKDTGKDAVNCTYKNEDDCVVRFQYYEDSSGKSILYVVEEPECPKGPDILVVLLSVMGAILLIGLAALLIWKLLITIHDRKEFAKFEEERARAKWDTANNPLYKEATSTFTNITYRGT
Sequence of VEGFR-2 of mouse lung endothelial cells (mouse) (P35918 20-1345): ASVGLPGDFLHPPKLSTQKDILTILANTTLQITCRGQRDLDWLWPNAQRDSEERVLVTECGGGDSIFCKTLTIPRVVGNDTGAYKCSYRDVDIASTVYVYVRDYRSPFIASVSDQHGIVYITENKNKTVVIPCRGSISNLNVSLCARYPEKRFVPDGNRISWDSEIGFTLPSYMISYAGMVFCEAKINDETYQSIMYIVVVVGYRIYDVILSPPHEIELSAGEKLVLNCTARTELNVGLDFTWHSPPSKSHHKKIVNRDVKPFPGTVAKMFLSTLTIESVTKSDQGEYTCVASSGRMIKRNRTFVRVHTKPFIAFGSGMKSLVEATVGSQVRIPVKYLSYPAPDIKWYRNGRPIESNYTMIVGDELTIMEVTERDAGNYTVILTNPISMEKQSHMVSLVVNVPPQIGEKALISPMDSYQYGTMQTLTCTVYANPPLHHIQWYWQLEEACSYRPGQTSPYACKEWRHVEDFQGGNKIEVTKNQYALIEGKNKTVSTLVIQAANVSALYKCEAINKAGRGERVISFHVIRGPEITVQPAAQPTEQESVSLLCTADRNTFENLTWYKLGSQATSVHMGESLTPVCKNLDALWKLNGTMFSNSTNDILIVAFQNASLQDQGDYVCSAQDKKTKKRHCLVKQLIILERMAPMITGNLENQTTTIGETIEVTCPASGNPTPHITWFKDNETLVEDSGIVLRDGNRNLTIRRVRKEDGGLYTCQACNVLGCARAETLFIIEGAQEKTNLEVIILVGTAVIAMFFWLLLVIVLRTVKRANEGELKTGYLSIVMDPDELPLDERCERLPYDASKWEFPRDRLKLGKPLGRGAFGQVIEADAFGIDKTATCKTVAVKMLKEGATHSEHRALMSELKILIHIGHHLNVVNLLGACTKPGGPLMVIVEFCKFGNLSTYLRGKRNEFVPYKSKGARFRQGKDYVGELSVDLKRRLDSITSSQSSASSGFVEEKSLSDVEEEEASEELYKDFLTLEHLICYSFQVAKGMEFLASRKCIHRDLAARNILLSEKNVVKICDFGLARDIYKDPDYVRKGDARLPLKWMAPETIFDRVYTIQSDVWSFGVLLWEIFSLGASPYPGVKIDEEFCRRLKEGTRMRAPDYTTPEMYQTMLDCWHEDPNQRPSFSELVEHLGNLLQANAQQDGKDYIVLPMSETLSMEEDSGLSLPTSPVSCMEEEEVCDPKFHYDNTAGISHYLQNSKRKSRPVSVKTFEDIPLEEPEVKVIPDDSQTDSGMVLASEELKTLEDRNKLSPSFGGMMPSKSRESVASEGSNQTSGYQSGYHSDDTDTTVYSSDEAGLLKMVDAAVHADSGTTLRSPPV

In [1], VEGF-A165 (ligand) yielded a VEGFR-2 phosphorylation in DiYF EC of 2.5 fold and a VEGFR-2 phosphorylation in WT EC of 6 fold.
Turning to WOW-1 Fab, the figures for the fold increase of binding on VEGF stimulation in experiment [2], in [4] and in experiment [6] were 6 fold, 9 fold and 3.5 fold, respectively. Also, the fold increase of binding on VEGF-A165 stimulation in experiment [3] stood at 6 fold. For the same substance, the values for the fold increase of binding on MnCl2 stimulation in [4] and in experiment [6] were 30 fold and 14 fold, respectively. Also, the fold increase of WOW-1 density, prostate carcinoma against normal prostate tissue in experiment [5] amounted to 2.7 fold. Besides, in [7], the fold reduction of VEGF-triggered αvβ3 activation (WOW-1 binding) by dominant negative c-Src was over 2 fold.
Substance vitronectin (ligand) registered a fold decrease in cell adhesion to vitronectin, DiYF EC against WT EC in [8] of 2 fold.
In experiment [9], FITC-labeled fibrinogen (ligand) came in with a fold increase of binding on MnCl2 stimulation of over 40 fold and a fold increase of binding on VEGF stimulation of over 6 fold. Besides, in experiment [10], the fold increase of binding on MnCl2 stimulation turned out to be 17 fold and the fold increase of binding on VEGF stimulation was determined as 3 fold.
